The text below walks through data of the supplement of paper PMC12764529.

Data set [1] can be described thus: folding stability dG unfold (combined trypsin and chymotrypsin); higher = more stable. In short, it runs like this:
(§1)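 Bayesian fitting of sequencing counts gave K50 for each design. Unfolding free energy followed by setting this against a sequence-predicted unfolded-state K50 and a shared folded-state K50, either per protease or with trypsin and chymotrypsin combined. The designs, under 80 residues and lacking cysteine, were digested in a PA-tagged cDNA display format at 11 threefold-diluted protease concentrations and without protease, and only those with AlphaFold2 dimer inter-PAE above 15 were kept.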

Data set [2] can be described thus: folding stability dG unfold from trypsin proteolysis; higher = more stable. In a few lines: as §1
The nature of data set [3]: folding stability dG unfold from chymotrypsin proteolysis; higher = more stable. In a few lines:
as §1

± gives the half width of the 95% confidence interval.

For “SAGGSAGGSKVFTVEELENMTPEEIRALIKKSKKPVIIVAKSEEEKKRAAELLKELGVEVKVLSAGGSAGGS [r12_97_TrROS_Hall]”, the figures for the “folding stability dG unfold” value in data set [1], in data set [2] and in data set [3] were 3.7 ± 0.11 kcal/mol, 3.73 ± 0.12 kcal/mol and 3.6 ± 0.057 kcal/mol, respectively.
Consider “SAGGSAGGSKVKLTFTIPPGTTPEEAIAKAEELAKKLNIPIVKIDSIEYDPETGTVRIELELDSAGGSAGGS [r12_131_TrMRF]”, for which the results for the “folding stability dG unfold” value in data set [1], in data set [2] and in data set [3] were 4.31 ± 0.068 kcal/mol, 4.05 ± 0.15 kcal/mol and 4.31 ± 0.049 kcal/mol, respectively.
The corresponding values for “SAGGSAGGSLEVKVLGIVGDKPVEVTLPAGLGELTLEEIRAAFPPGEWRLVLRDENGNETPLTSAGGSAGGS [r12_540_TrMRF]” are 0.446 ± 0.16 kcal/mol, 0.663 ± 0.089 kcal/mol and -0.00936 ± 0.18 kcal/mol.
For “SAGGSAGGSLKPFPIEDITVQPRRNPDGNRYYQVSIRIKGPGRPINIPFPMDNPKKFLEDIIKSAGGSAGGS [r20_238_TrROS]” the same measures were 0.285 ± 0.17 kcal/mol, 0.519 ± 0.081 kcal/mol and 0.143 ± 0.12 kcal/mol.
For the sequence “SAGGSAGGSLMIPIPPGKPINIKFEIKNDDGHPMRITETYPVKNGYYVIRVENPNGNEQIIPFSAGGSAGGS [r12_31_TrROS]”, the “folding stability dG unfold” value is -0.185 ± 0.14 kcal/mol in data set [1], -0.247 ± 0.15 kcal/mol in data set [2] and -0.271 ± 0.2 kcal/mol in data set [3].
The corresponding values for “SAGGSAGGSMADITITVTDPATGATRTFPHSVSLEEILAEHPGPVTVTIETPTSTTTLQVPRESAGGSAGGS [r12_1056_JUSTAS]” are 0.542 ± 0.056 kcal/mol, 0.884 ± 0.03 kcal/mol and 0.0731 ± 0.084 kcal/mol.
On to “SAGGSAGGSMDLKDIKILEAYDPGGPVVVTFLNEGKPYTVTIPPENAQILLDLLKEGNIEIKPSAGGSAGGS [r12_604_TrMRF]”, for which the “folding stability dG unfold” value was determined as 1.25 ± 0.054 kcal/mol in data set [1], 0.773 ± 0.032 kcal/mol in data set [2] and 1.54 ± 0.047 kcal/mol in data set [3].
The corresponding values for “SAGGSAGGSMDLKNAKIISIEETENEIKITIEVDGKLYTITISKEEAEKLKKLLEDLNIEIIPSAGGSAGGS [r12_604_TrROS_Hall]” are 4.27 ± 0.14 kcal/mol, 4.14 ± 0.23 kcal/mol and 4.3 ± 0.079 kcal/mol.
For “SAGGSAGGSMEEIIEEIKKKVPKDKYAEIEIEVPFPDGSKKKFKIKFYPETNEFEVEELEEIPSAGGSAGGS [r12_305_TrMRF]” the same measures were 3.88 ± 0.24 kcal/mol, 3.12 ± 0.26 kcal/mol and 4.12 ± 0.23 kcal/mol.
For “SAGGSAGGSMFEEEEIEIERPDGTTIKVKVEILPDGTRVLTITDPKEGKTTTVTLSPNEEILLSAGGSAGGS [r20_45_JUSTAS]” the same measures were 1.6 ± 0.12 kcal/mol, 2.15 ± 0.12 kcal/mol and 0.464 ± 0.049 kcal/mol.
In the case of “SAGGSAGGSMHEDEQLPYEAAEKYTILKLKEENEKLNLPPIPIKKIEIEKDPETGLVRVKVYGSAGGSAGGS [r12_583_TrMRF]”, the “folding stability dG unfold” value in data set [1] was -0.552 ± 0.39 kcal/mol; in data set [2], -0.788 ± 0.42 kcal/mol; in data set [3] it was -0.579 ± 0.6 kcal/mol.
The corresponding values for “SAGGSAGGSMIEYPELTLEELKAKFEAEGYTVEEEPPTNVVTLTPPDGTPITVTVTPVPESLLSAGGSAGGS [r12_211_JUSTAS]” are 0.803 ± 0.057 kcal/mol, 1.21 ± 0.043 kcal/mol and 0.352 ± 0.013 kcal/mol.
For “SAGGSAGGSMIFFPNITKEEFEEIFRKKGYKVKRYPSTNVIEVTGKDGKPIKAVVIPVSPEEFSAGGSAGGS [r12_211_TrMRF]” the same measures were 0.668 ± 0.088 kcal/mol, 0.677 ± 0.058 kcal/mol and 0.618 ± 0.13 kcal/mol.
With “SAGGSAGGSMIKIKVKSKEDVEALIKELEKAGFKVKKVEEVDGKVYFTLENGEKIEIEVVPPESAGGSAGGS [r20_93_TrROS_Hall]”, the “folding stability dG unfold” value in data set [1] came to 5.05 ± 0.34 kcal/mol; in data set [2] it was 4.24 ± 0.48 kcal/mol; in data set [3] it was 4.94 ± 0.12 kcal/mol.
For “SAGGSAGGSMIKVKITYPNGEEKTIEIEAETEEEAEEAAKKLAEELGKDVKVEVEKVSPEELKSAGGSAGGS [r12_385_TrROS_Hall]” the same measures were 1.45 ± 0.073 kcal/mol, 1.64 ± 0.075 kcal/mol and 1.22 ± 0.034 kcal/mol.
The corresponding values for “SAGGSAGGSMKITKIEVEENEDGTLTVRLELEFVDPETKETYRVELEITVSKEELEKLLEALKSAGGSAGGS [r12_691_TrROS_Hall]” are 3.9 ± 0.23 kcal/mol, 3.03 ± 0.12 kcal/mol and 4.09 ± 0.21 kcal/mol.
For “SAGGSAGGSMKITKTEEGVYLVEFTLPDGTPLVIPFPTDDPFLTEEQAVEIAKPIAAAFAAAGSAGGSAGGS [r12_642_TrMRF]” the same measures were 1.22 ± 0.044 kcal/mol, 0.84 ± 0.016 kcal/mol and 1.35 ± 0.038 kcal/mol.
As for “SAGGSAGGSMKKLKITFPPGMTEEELKKKIEELAKKLNLEVVKIKSIEYDKENKEVTITVEIKSAGGSAGGS [r12_131_TrROS_Hall]”, the figures for the “folding stability dG unfold” value in data set [1], in data set [2] and in data set [3] were 3.87 ± 0.088 kcal/mol, 4.2 ± 0.17 kcal/mol and 3.77 ± 0.059 kcal/mol, respectively.
The corresponding values for “SAGGSAGGSMKRLPDGNLVVKLNNGSTWSVITIPVSPDESEEEIKQRLKELFGPNYPEYDISESAGGSAGGS [r12_300_JUSTAS]” are 1.04 ± 0.058 kcal/mol, 1.08 ± 0.011 kcal/mol and 0.917 ± 0.09 kcal/mol.
For “SAGGSAGGSMKTVEIELVNKETGKKVTITVNDGKVTIRITNPDGEEKELEFPSLEEALEALLSSAGGSAGGS [r12_511_TrROS_Hall]” the same measures were 2.19 ± 0.2 kcal/mol, 2.45 ± 0.14 kcal/mol and 1.93 ± 0.19 kcal/mol.
For “SAGGSAGGSMKTYTLPNGLRVQLVRVDKKTKTITLKVFDKNGELVEEIEIKVDEPVELLVVYPSAGGSAGGS [r12_960_TrROS_Hall]” the same measures were 2.45 ± 0.15 kcal/mol, 2.09 ± 0.061 kcal/mol and 2.69 ± 0.05 kcal/mol.
With “SAGGSAGGSMKVSPASRSEFDGSRVITITVTKEGTGTTTDITIPFSPDEPDVDEVAKAIAESLSAGGSAGGS [r12_415_JUSTAS]”, the “folding stability dG unfold” value was 0.838 ± 0.091 kcal/mol in data set [1], 0.0886 ± 0.12 kcal/mol in data set [2] and 1.12 ± 0.023 kcal/mol in data set [3].
The corresponding values for “SAGGSAGGSMKVVKILSIETKAEKDEEVLTIPVLDPANGKVITLTVSPEVAKTITTDDEIELLSAGGSAGGS [r12_382_JUSTAS]” are 0.47 ± 0.14 kcal/mol, 0.177 ± 0.14 kcal/mol and 0.517 ± 0.12 kcal/mol.
The corresponding values for “SAGGSAGGSMKVVVTAKLPGGEVLQKTIPVDESVLKKMSKEEVIELLKKEGLPENVEIKFEPKSAGGSAGGS [r12_742_JUSTAS]” are 1.81 ± 0.24 kcal/mol, 1.34 ± 0.067 kcal/mol and 2.17 ± 0.15 kcal/mol.
The corresponding values for “SAGGSAGGSMKYLVTFPEGGPVPLPDGTSVALAPGAVLELETEEEAEALKALNPGRPVVITPVSAGGSAGGS [r12_987_JUSTAS]” are 1.47 ± 0.05 kcal/mol, 1.51 ± 0.037 kcal/mol and 1.35 ± 0.03 kcal/mol.
With “SAGGSAGGSMKYYKTKDGKIVKAPPIETVKLKLKLEINGKKIEIEIEMSKEEIDKLLKELEKKSAGGSAGGS [r20_148_TrROS_Hall]”, the results for the “folding stability dG unfold” value in data set [1], in data set [2] and in data set [3] were 1.05 ± 0.13 kcal/mol, 0.717 ± 0.051 kcal/mol and 1.27 ± 0.17 kcal/mol, respectively.
